Substitutions are numbered along the chain they refer to.
B1: His-FLAG-FRB (wild-type FRB) (other)
chain: MGHHHHHHHHGSDYKDDDDKGSASRILWHEMWHEGLEEASRLYFGERNVKGMFEVLEPLHAMMERGPQTLKETSFNQAYGRDLMEAQEWCRKYMKSGNVKDLTQAWDLYYHVFRRISKTS
notes: also called wild type Flag-FRB
B2: His-FLAG-FRB E2032I (other)
chain: B1 chain with E37I
notes: The entry already carries the mutation
B3: His-FLAG-FRB T2098L (other)
chain: B1 chain with T103L
notes: as for B2
B4: His-FLAG-FRB E2032L (other)
chain: B1 chain with E37L
notes: as for B2

These binders were tested against T1, His-Avidin-FKBP (wild-type FKBP) (biotinylated) (assay: AlphaLISA direct binding assay: 30 nM FLAG-FRB and 30 nM biotinylated FKBP, everolimus titrated 1:3 from 600 nM (EC50 is of everolimus)).
T1 construct: also called biotinylated wild-type FKBP; biotinylated FKBP
T1 sequence (chain, as listed by the source limits assumed): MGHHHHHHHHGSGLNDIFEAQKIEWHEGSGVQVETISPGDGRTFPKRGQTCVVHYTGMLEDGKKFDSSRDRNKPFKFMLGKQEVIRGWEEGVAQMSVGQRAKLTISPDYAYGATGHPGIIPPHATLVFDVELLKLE
Experimental: (§1) FRB mutations were also ranked in an alternative assay format. […] All dilutions were made in 1× AlphaLISA Immunoassay buffer (PerkinElmer). Anti-Flag acceptor beads (PerkinElmer) were added at 10 ug/ml final concentration and incubated for one hour at room temperature. Streptavidin donor beads (PerkinElmer), were then added at a final concentration of 40 ug/ml and the plate was protected from light and incubated for 30 minutes at room temperature. The plate was then read on the PerkinElmer EnVision Multiplate reader equipped with the Alpha Module using excitation of 680 nm and a 570 nm Emission filter.

EC50 [nM] | Binder
3.9 | B1
2.46 | B2
1.44 | B3
2.15 | B4

The binders below were run against T1, His-Avidin-FKBP (wild-type FKBP) (assay: AlphaLISA direct binding assay, EC50 relative to wild type FLAG-FRB).
Experimental: as §1

fold improvement over wild type FRB [fold] | Binder
1.5 to 2 | B2
3 | B3
1.5 to 2 | B4

Source: patent US10287354 (Novartis, dated 2019)
